Ends that are not written are not given here.
How the values were obtained:
A1PI [1] = biological target: T1, A1PI (Homo sapiens, UniProt P01009); test: A1PI yield from dialyzed (aqueous) Effluent II+III; format: binding; conditions: 4° C.
T1 construct: Human plasma is currently the only approved source of therapeutic AlPI
Procedure: Effluent II+III was dialyzed against equilibration buffer at 4° C. to remove the ethanol using a 15,000 molecular weight cut-off membrane. Nephelometry of the Eff. […] A portion of the identified sequences were assayed under the same conditions applied for neat Eff. II+III at 4° C. […] II+III compared to the neat, ethanol-containing feed. The binding strength differed for the aqueous feed as more AlPI eluted in 1M NaCl for the aqueous feed. The AlPI eluted in the 1M NaCl fractions was not as enriched as that eluted in the acid eluates.

A1PI [2] = biological target: T1, A1PI; test: A1PI purification from 5 mg hSA + 1 mg A1PI on peptide column, A1PI mass balance; format: binding; conditions: A1PI, 5 mg hSA + 1 mg A1PI; for Percent Eluted by Fraction, 1M NaCl / Percent Eluted by Fraction, 2% Ac. Acid / Percent Eluted by Fraction, 3M NaCl / Percent Eluted by Fraction, Flow: relative to total eluted
Summary of the method: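 Mass balance by immunonephelometry of fractions from step elutions (1M NaCl, 3M NaCl, 2% acetic acid, neutralised with Tris) at 865 μl/min. Sample was a mixture of 1 mg A1PI and 5 mg hSA held 10 min on peptide-derivatised Toyopearl columns (0.1 mmole/g) at 4 °C or 20 °C.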

Immunoglobulin A (IgA) = test: Purification from Effluent II+III, IgA mass balance; format: binding, human; conditions: 1 ml Eff. II+III, 4° C.
Summary of the method: (§1)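 Run at 4° C: Effluent II+III (1 ml, 20% ethanol) loaded with a 10 min residence. Elution at 865 μl/min, in sequence 1M NaCl, 3M NaCl, 2% acetic acid; A1PI, IgA, IgG and haptoglobin accounted for in each fraction.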

Immunoglobulin G (IgG) = test: Purification from Effluent II+III, IgG mass balance; format: binding, human; conditions: 1 ml Eff. II+III, 4° C.
Summary of the method: as §1

[3] = biological target: T2, apolipoprotein alpha-1 (Apo A-1) (Homo sapiens, UniProt P02647); test: Purification from Effluent II+III, Apo A-1 mass balance; format: binding; conditions: 1 ml Eff. II+III, 4° C.
T2 construct: Eff; II+III is a process intermediate in the Cohn plasma fractionation process; tissue Bayer Corporation (Clayton, N.C.); host or cells: plasma fraction: Cohn Effluent II+III
T2 sequence (P02647 19-267): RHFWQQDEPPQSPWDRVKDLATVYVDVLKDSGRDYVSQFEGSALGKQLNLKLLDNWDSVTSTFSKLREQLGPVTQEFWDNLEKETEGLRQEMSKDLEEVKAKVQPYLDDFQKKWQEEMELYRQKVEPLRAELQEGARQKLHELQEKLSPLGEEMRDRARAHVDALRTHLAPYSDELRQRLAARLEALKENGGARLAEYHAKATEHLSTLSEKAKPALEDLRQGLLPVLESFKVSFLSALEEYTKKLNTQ
Summary of the method: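 Feed: 1 ml Eff. II+III (20% EtOH, 20-25 mg/ml hSA, ~1 mg/ml A1PI). 10 min residence, then 865 μl/min; steps 1M NaCl / 3M NaCl / 2% acetic acid; 4° C. Mass balance per fraction.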

A1PI [4] = biological target: T1, A1PI; test: Purification of A1PI from Effluent II+III on peptide column, A1PI mass balance; format: binding; conditions: A1PI, 1 ml Eff. II+III, 4° C.
Summary of the method: as §1

A1PI [5] = biological target: T1, A1PI; test: A1PI binding on peptide-resin column, injection of 1 mg A1PI in equilibration buffer; conditions: 1 mg A1PI in equilibration buffer
Summary of the method: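 Percent of total eluted A1PI per fraction (flowthrough, NaCl steps, 2% acetic acid) determined by A280 integration or immunonephelometry. Columns of peptide-derivatized A-Totda-Toyopearl resin (0.1 mmole/g) received 1 mg A1PI at 4 °C or 20 °C, flow 865 or 523 μl/min.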

A1PI [6] = biological target: T1, A1PI; test: Capture and elution of active A1PI with 2M urea buffer (elastase inhibition activity assay and immunonephelometry); format: binding; conditions: 4° C.
[7] = 1 ml dialyzed Eff. II+III (ethanol removed)
[8] = A1PI, 1 ml dialyzed Eff. II+III
[9] = 20° C., * Below detection limit
[10] = * as in Tables 4, 5 (below detection limit)

T1 sequence (P01009 25-418): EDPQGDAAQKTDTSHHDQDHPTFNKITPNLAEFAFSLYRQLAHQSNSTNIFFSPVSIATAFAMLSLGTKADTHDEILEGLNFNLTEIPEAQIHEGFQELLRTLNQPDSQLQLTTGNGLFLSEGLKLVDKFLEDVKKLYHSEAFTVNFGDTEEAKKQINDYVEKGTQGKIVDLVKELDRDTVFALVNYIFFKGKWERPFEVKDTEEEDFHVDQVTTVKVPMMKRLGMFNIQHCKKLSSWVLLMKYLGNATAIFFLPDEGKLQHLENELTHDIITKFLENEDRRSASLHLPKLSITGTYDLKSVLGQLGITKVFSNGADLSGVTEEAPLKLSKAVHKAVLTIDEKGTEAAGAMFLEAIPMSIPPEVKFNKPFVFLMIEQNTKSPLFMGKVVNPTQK

In the case of RYRIFI, the “Mass A1PI per Eluate Fraction, 1M NaCl” value (A1PI [1]; [7]) is reported as 0.15 mg, the “Mass A1PI per Eluate Fraction, 2% Acetic Acid” value (A1PI [1]; [7]) is reported as 0.25 mg and the “Mass A1PI per Eluate Fraction, Flowthrough” value (A1PI [1]; [7]) is reported as 0.21 mg. The “Percent Eluted by Fraction, 1M NaCl” value (A1PI [1]; [8]) was 24%, the “Percent Eluted by Fraction, 2% Acetic Acid” value (A1PI [1]; [8]) was 41% and the “Percent Eluted by Fraction, Flowthrough” value (A1PI [1]; [8]) was 35%. For the same substance, the “Mass Protein per Eluate Fraction, 1M NaCl” value (A1PI [2]; 4° C., * Below detection limit) was 0.27 mg, the “Mass Protein per Eluate Fraction, 2% Ac. Acid” value (A1PI [2]; 4° C., * Below detection limit) was 0.71 mg and the “Percent Eluted by Fraction, 1M NaCl” value (A1PI [2]; 4° C.) was 28%. The “Percent Eluted by Fraction, 2% Ac. Acid” value (A1PI [2]; 4° C.) was 72%, the “Percent Eluted by Fraction, 3M NaCl” value (A1PI [2]; 4° C.) was 0% and the “Percent Eluted by Fraction, Flow” value (A1PI [2]; 4° C.) was 0%. The “Mass Protein per Eluate Fraction, 1M NaCl” value (A1PI [2]; [9]) was 0.21 mg, the “Mass Protein per Eluate Fraction, 2% Ac. Acid” value (A1PI [2]; [9]) was 0.50 mg and the “Mass Protein per Eluate Fraction, Flow” value (A1PI [2]; [9]) was 0.22 mg. For the same substance, the “Percent Eluted by Fraction, 1M NaCl” value (A1PI [2]; 20° C.) was 23%, the “Percent Eluted by Fraction, 2% Ac. Acid” value (A1PI [2]; 20° C.) was 53% and the “Percent Eluted by Fraction, 3M NaCl” value (A1PI [2]; 20° C.) was 0%. For the same substance, the “Percent Eluted by Fraction, Flow” value (A1PI [2]; 20° C.) was 24%, the “Percent Eluted by Fraction, 1M NaCl” value (Immunoglobulin A (IgA)) was 17% and the “Percent Eluted by Fraction, 2% Acetic Acid” value (Immunoglobulin A (IgA)) was 60%. The “Percent Eluted by Fraction, 3M NaCl” value (Immunoglobulin A (IgA)) was 0%, the “Percent Eluted by Fraction, Flow” value (Immunoglobulin A (IgA)) was 22% and the “Mass Protein per Eluate Fraction, 1M NaCl” value (Immunoglobulin A (IgA); [10]) was 0.06 mg. The “Mass Protein per Eluate Fraction, 2% Acetic Acid” value (Immunoglobulin A (IgA); [10]) was 0.23 mg, the “Mass Protein per Eluate Fraction, Flow” value (Immunoglobulin A (IgA); [10]) was 0.08 mg and the “Percent Eluted by Fraction, 1M NaCl” value (Immunoglobulin G (IgG)) was 0%. The “Percent Eluted by Fraction, 2% Acetic Acid” value (Immunoglobulin G (IgG)) was 0%, the “Percent Eluted by Fraction, 3M NaCl” value (Immunoglobulin G (IgG)) was 0% and the “Percent Eluted by Fraction, Flow” value (Immunoglobulin G (IgG)) was 100%. For the same substance, the “Mass Protein per Eluate Fraction, Flow” value (Immunoglobulin G (IgG); [10]) was 0.24 mg, the “Percent Eluted by Fraction, 1M NaCl” value [3] was 0% and the “Percent Eluted by Fraction, 2% Acetic Acid” value [3] was 100%. The “Percent Eluted by Fraction, 3M NaCl” value [3] was 0%, the “Percent Eluted by Fraction, Flow” value [3] was 0% and the “Mass Protein per Eluate Fraction, 2% Acetic Acid” value [3, 10] was 0.39 mg. The “Percent Eluted by Fraction, 1M NaCl” value (A1PI [4]) was 9%, the “Percent Eluted by Fraction, 2% Acetic Acid” value (A1PI [4]) was 66% and the “Percent Eluted by Fraction, 3M NaCl” value (A1PI [4]) was 0%. For the same substance, the “Percent Eluted by Fraction, Flow” value (A1PI [4]) was 25%, the “Mass Protein per Eluate Fraction, 1M NaCl” value (A1PI [4]; [10]) was 0.07 mg and the “Mass Protein per Eluate Fraction, 2% Acetic Acid” value (A1PI [4]; [10]) was 0.50 mg. The “Mass Protein per Eluate Fraction, Flow” value (A1PI [4]; [10]) was 0.19 mg, the “Percent A1PI Eluted by Fraction Based on Absorbance at 280 nm, 1M NaCl” value (A1PI [5]; 4° C.) was 40% and the “Percent A1PI Eluted by Fraction Based on Absorbance at 280 nm, 2% Acetic Acid” value (A1PI [5]; 4° C.) was 60%. The “Percent A1PI Eluted by Fraction Based on Absorbance at 280 nm, Flowthrough” value (A1PI [5]; 4° C.) was 0%, the “Percent A1PI Eluted by Fraction, 1M NaCl” value (A1PI [5]; 20° C.) was 35% and the “Percent A1PI Eluted by Fraction, 2% Acetic Acid” value (A1PI [5]; 20° C.) was 65%. The “Percent A1PI Eluted by Fraction, Flowthrough” value (A1PI [5]; 20° C.) was 0%, the “Mass A1PI in Urea Eluate (mg), Activity” value (A1PI [6]; 1 mg A1PI, eluted with 2M urea, pH 6, elastase inhibition activity assay) was 0.67 mg and the “Mass A1PI in Urea Eluate (mg), Nephelometry” value (A1PI [6]; 1 mg A1PI, eluted with 2M urea, pH 6, immunonephelometry) was 0.79 mg. The “Specific Activity” value (A1PI [6]; mass of A1PI by activity assay relative to immunonephelometry, urea eluate) was 0.86 mg/mg.
